Experimental findings from the supplement of paper PMC7877785 are described below.

± gives the uncertainty stated by the source.

The data set can be described thus: self-splicing fitness, log relative to wild type (ln ratio); higher = more splicing; Tetrahymena group I intron in knt gene, E. coli kanamycin selection, DiMSum; sequences stand for … in CUCUCU…GGAGGGAAAAGUUAUCAGGCAUGCACCUGGUAGCUAGUCUUUAAACCAAUAGAUUGCAUCGGUUUAAAAGGCAAGACCGUCAAAUUGCGGGAAAGGGGUCAACAGCCGUUCAGUACCAAGUCUCAGGGGAAACUUUGAGAUGGCCUUGCAAAGGGUAUGGUAAUAAGCUGACGGACAUGGUCCUAACCACGCAGCCAAGUCCUAAGUCAACAGAUCUUCUGUUGAUAUGGAUGCAGUUCACAGACUAAAUGUCGGUCGGGGAAGAUGUAUUCUUCUCAUAAGAUAUAGUCGGACCUCUCCUUAAUGGGAGCUAGCGGAUGAAGUGAUGCAACACUGGAGCCGCUGGGAACUAAUUUGUAUGCGAAAGUAUAUUGAUUAGUUUUGGAGUACUCGUGGUCG
Put shortly:
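Six replicate transformations of E. coli BL21(DE3) with a pET-22b(+) library were grown overnight at 37°C or 30°C. The library randomised all eight P1ex-region intron nucleotides, the intron lying in the knt kanamycin-resistance gene, and plates were LB agar with or without 25 μg/mL kanamycin plus 100 μg/mL carbenicillin, 50 μM IPTG and 0.2% rhamnose. Pooled colonies were amplicon-sequenced on an Illumina HiSeq 2500, and fitness is the DiMSum error-weighted combination of wild-type-normalised replicate fold changes, kanamycin versus none.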

In the case of CGCUAGCAAUAUUACGCCGU, the “self-splicing fitness (ln)” value runs as follows: (30 °C) -0.129 ± 0.17; (37 °C) -0.719 ± 0.18.

AUGAAGCAAUAUUACGUCAA: the “self-splicing fitness (ln)” value is -0.911 ± 0.064 (30 °C) and -0.148 ± 0.076 (37 °C).

Consider CUCGAGCAAUAUUACGUCUA, for which the “self-splicing fitness (ln)” value is -1.79 ± 0.24 (30 °C) and -2.43 ± 0.31 (37 °C).

CUCAAGCAAUAUUACGGAGU: the “self-splicing fitness (ln)” value is, setting by setting: (30 °C) -3.52 ± 0.17; (37 °C) -3.04 ± 0.18.

On to AAAAAGCAAUAUUACGUUCA, for which the “self-splicing fitness (ln)” value (30 °C) is -0.237 ± 0.075 and the “self-splicing fitness (ln)” value (37 °C) came out at 0.0228 ± 0.089.

For the sequence CCACAGCAAUAUUACGAAAU, the “self-splicing fitness (ln)” value is, setting by setting: (30 °C) -4.25 ± 0.24; (37 °C) -2.02 ± 0.17.

Turning to UUUAAGCAAUAUUACGCUGU, the “self-splicing fitness (ln)” value was -3.57 ± 0.21 (30 °C) and -1.79 ± 0.18 (37 °C).

On to AAUGAGCAAUAUUACGACCG, for which the “self-splicing fitness (ln)” value (30 °C) was -3.45 ± 0.36 and the “self-splicing fitness (ln)” value (37 °C) was -1.24 ± 0.34.

As for GAACAGCAAUAUUACGUACC, the “self-splicing fitness (ln)” value is, setting by setting: (30 °C) -0.94 ± 0.27; (37 °C) 0.0452 ± 0.3.

Turning to GGUUAGCAAUAUUACGUCAA, the “self-splicing fitness (ln)” value (30 °C) was -0.285 ± 0.11 and the “self-splicing fitness (ln)” value (37 °C) was -0.43 ± 0.13.

With UCCGAGCAAUAUUACGUCGA, the “self-splicing fitness (ln)” value was -1.21 ± 0.16 (30 °C) and -0.238 ± 0.13 (37 °C).

As for CCCUAGCAAUAUUACGUUUA, the “self-splicing fitness (ln)” value was -2.91 ± 0.14 (30 °C) and -2.16 ± 0.16 (37 °C).

As for UGGUAGCAAUAUUACGGUUC, the “self-splicing fitness (ln)” value is -3.54 ± 0.46 (30 °C) and -3.1 ± 0.47 (37 °C).

For the sequence GGACAGCAAUAUUACGCCGG, the “self-splicing fitness (ln)” value is, setting by setting: (30 °C) -3.95 ± 0.48; (37 °C) -2.11 ± 0.32.

ACUUAGCAAUAUUACGUCUG: the “self-splicing fitness (ln)” value (30 °C) is -1.82 ± 0.11 and the “self-splicing fitness (ln)” value (37 °C) was -0.782 ± 0.15.

For the sequence ACGGAGCAAUAUUACGCUGG, the “self-splicing fitness (ln)” value is, setting by setting: (30 °C) -3.77 ± 0.29; (37 °C) -1.2 ± 0.18.

Consider GGGAAGCAAUAUUACGUCCG, for which the “self-splicing fitness (ln)” value (30 °C) is -1.81 ± 0.15 and the “self-splicing fitness (ln)” value (37 °C) is -0.461 ± 0.18.

AGUAAGCAAUAUUACGAGUG: the “self-splicing fitness (ln)” value reads like this: (30 °C) -3.01 ± 0.27; (37 °C) -3.04 ± 0.43.

Turning to GAAAAGCAAUAUUACGGCCG, the “self-splicing fitness (ln)” value was -0.796 ± 0.087 (30 °C) and -0.537 ± 0.12 (37 °C).

In the case of ACUGAGCAAUAUUACGACUU, the “self-splicing fitness (ln)” value is, setting by setting: (30 °C) -1.4 ± 0.11; (37 °C) -0.511 ± 0.14.

Turning to CAGGAGCAAUAUUACGCAGA, the “self-splicing fitness (ln)” value (30 °C) is -2.76 ± 0.33 and the “self-splicing fitness (ln)” value (37 °C) was -2.29 ± 0.2.

As to CCGGAGCAAUAUUACGCCUU, the “self-splicing fitness (ln)” value (30 °C) was -2.67 ± 0.36 and the “self-splicing fitness (ln)” value (37 °C) was -3.35 ± 0.47.

Consider UCGGAGCAAUAUUACGUGUA, for which, under “37 °C”, the “self-splicing fitness (ln)” value is -1.29 ± 0.2.

As to AAUAAGCAAUAUUACGUGCU, the “self-splicing fitness (ln)” value (30 °C) was -1.8 ± 0.074 and the “self-splicing fitness (ln)” value (37 °C) was -1.29 ± 0.08.

For the sequence CGAAAGCAAUAUUACGUGUG, the “self-splicing fitness (ln)” value (30 °C) was -0.273 ± 0.054 and the “self-splicing fitness (ln)” value (37 °C) amounted to 0.27 ± 0.066.

For AUGCAGCAAUAUUACGGGAC, the “self-splicing fitness (ln)” value was -2.82 ± 0.17 (30 °C) and -2.74 ± 0.19 (37 °C).

UGGCAGCAAUAUUACGCCUG: the “self-splicing fitness (ln)” value was -1.24 ± 0.097 (30 °C) and -0.681 ± 0.13 (37 °C).

Consider GACUAGCAAUAUUACGCUGG, for which the “self-splicing fitness (ln)” value (30 °C) was -3.18 ± 0.21 and the “self-splicing fitness (ln)” value (37 °C) was -2.13 ± 0.25.

As to GAACAGCAAUAUUACGCUCU, the “self-splicing fitness (ln)” value was -1.37 ± 0.17 (30 °C) and -0.466 ± 0.15 (37 °C).

Consider ACUGAGCAAUAUUACGAUUA, for which the “self-splicing fitness (ln)” value (30 °C) is -3.39 ± 0.3 and the “self-splicing fitness (ln)” value (37 °C) was -1.78 ± 0.18.

On to AGUAAGCAAUAUUACGGUGC, for which the “self-splicing fitness (ln)” value (30 °C) is -4.4 ± 0.46 and the “self-splicing fitness (ln)” value (37 °C) is -1.37 ± 0.17.

For the sequence UUAUAGCAAUAUUACGCCAU, the “self-splicing fitness (ln)” value is -3.93 ± 0.31 (30 °C) and -3.15 ± 0.28 (37 °C).

Turning to UAAGAGCAAUAUUACGUAGA, the “self-splicing fitness (ln)” value is -3.89 ± 0.23 (30 °C) and -1.34 ± 0.28 (37 °C).

Consider GAUUAGCAAUAUUACGAUCA, for which the “self-splicing fitness (ln)” value reads like this: (30 °C) -0.826 ± 0.21; (37 °C) -0.493 ± 0.19.

As to AACAAGCAAUAUUACGUCCA, the “self-splicing fitness (ln)” value reads like this: (30 °C) -1.12 ± 0.068; (37 °C) -0.468 ± 0.076.

On to AGGGAGCAAUAUUACGGCCU, for which the “self-splicing fitness (ln)” value was -2.43 ± 0.22 (30 °C) and -1.41 ± 0.24 (37 °C).

Take ACGGAGCAAUAUUACGGAAU: the “self-splicing fitness (ln)” value is, setting by setting: (30 °C) -1.57 ± 0.39; (37 °C) -2.5 ± 0.45.

Consider GGAGAGCAAUAUUACGACGU, for which the “self-splicing fitness (ln)” value was -1.29 ± 0.2 (30 °C) and -0.823 ± 0.25 (37 °C).

Take GAGUAGCAAUAUUACGUAUG: the “self-splicing fitness (ln)” value runs as follows: (30 °C) -2.85 ± 0.13; (37 °C) -2.51 ± 0.19.

On to UCGAAGCAAUAUUACGGGAC, for which the “self-splicing fitness (ln)” value was -3.19 ± 0.47 (30 °C) and -3.17 ± 0.33 (37 °C).

With AUGCAGCAAUAUUACGUAAA, the “self-splicing fitness (ln)” value (30 °C) was -1.44 ± 0.092 and the “self-splicing fitness (ln)” value (37 °C) was -1.14 ± 0.13.

As for GACCAGCAAUAUUACGUGGA, the “self-splicing fitness (ln)” value by setting is: (30 °C) -1.67 ± 0.078; (37 °C) -0.914 ± 0.081.

As for UAUCAGCAAUAUUACGGGCA, the “self-splicing fitness (ln)” value (30 °C) is -0.0174 ± 0.066 and the “self-splicing fitness (ln)” value (37 °C) was 0.193 ± 0.084.

Turning to CAGUAGCAAUAUUACGCUAG, the “self-splicing fitness (ln)” value is, setting by setting: (30 °C) -2.14 ± 0.1; (37 °C) -1.34 ± 0.1.

Take AGUAAGCAAUAUUACGGAUA: the “self-splicing fitness (ln)” value was -2.85 ± 0.28 (30 °C) and -1.69 ± 0.21 (37 °C).

As for UGACAGCAAUAUUACGUUCG, the “self-splicing fitness (ln)” value (30 °C) is -0.885 ± 0.068 and the “self-splicing fitness (ln)” value (37 °C) was -0.194 ± 0.075.

Take ACGUAGCAAUAUUACGCCCC: the “self-splicing fitness (ln)” value is, setting by setting: (30 °C) -1.38 ± 0.27; (37 °C) -1.28 ± 0.29.

For the sequence CUAAAGCAAUAUUACGCGUU, the “self-splicing fitness (ln)” value (30 °C) is -3.08 ± 0.13 and the “self-splicing fitness (ln)” value (37 °C) is -2.67 ± 0.27.

Consider UGCUAGCAAUAUUACGUUUG, for which the “self-splicing fitness (ln)” value by setting is: (30 °C) -1.48 ± 0.074; (37 °C) -0.163 ± 0.092.

With UCCGAGCAAUAUUACGACAC, the “self-splicing fitness (ln)” value runs as follows: (30 °C) -2.81 ± 0.21; (37 °C) -2.33 ± 0.23.

UUCUAGCAAUAUUACGGAUA: the “self-splicing fitness (ln)” value was -1.44 ± 0.17 (30 °C) and -0.551 ± 0.15 (37 °C).

As for GAAGAGCAAUAUUACGACUG, the “self-splicing fitness (ln)” value is -3.86 ± 0.39 (30 °C) and -1.88 ± 0.16 (37 °C).

Regarding UGUCAGCAAUAUUACGCUCG, the “self-splicing fitness (ln)” value was -0.552 ± 0.16 (30 °C) and 0.987 ± 0.32 (37 °C).

Take AGCCAGCAAUAUUACGGGAA: the “self-splicing fitness (ln)” value (30 °C) was -2.59 ± 0.19 and the “self-splicing fitness (ln)” value (37 °C) is -0.667 ± 0.12.

For the sequence AUAAAGCAAUAUUACGGCAG, the “self-splicing fitness (ln)” value is -0.699 ± 0.092 (30 °C) and -0.0772 ± 0.13 (37 °C).

For the sequence AACCAGCAAUAUUACGCCAG, the “self-splicing fitness (ln)” value (30 °C) was -2.46 ± 0.14 and the “self-splicing fitness (ln)” value (37 °C) is -1.72 ± 0.18.

In the case of UUGGAGCAAUAUUACGUAUG, the “self-splicing fitness (ln)” value (30 °C) was -3.25 ± 0.36 and the “self-splicing fitness (ln)” value (37 °C) is -1.36 ± 0.37.

Regarding UGUGAGCAAUAUUACGCAUA, the “self-splicing fitness (ln)” value reads like this: (30 °C) -1.6 ± 0.23; (37 °C) -2.46 ± 0.33.

For the sequence UAGAAGCAAUAUUACGGCGU, the “self-splicing fitness (ln)” value is, setting by setting: (30 °C) -0.78 ± 0.077; (37 °C) -0.678 ± 0.11.

Consider AAUGAGCAAUAUUACGCAAC, for which the “self-splicing fitness (ln)” value is -2.46 ± 0.22 (30 °C) and -2.51 ± 0.44 (37 °C).
